The values that follow come from PMC11208452.

This data set addresses T1, BMAL2 (recombinant human, Novus H00056938-Q01) (Homo sapiens) (UniProt Q8WYA1).
T1 sequence (Q8WYA1 whole entry, looked up): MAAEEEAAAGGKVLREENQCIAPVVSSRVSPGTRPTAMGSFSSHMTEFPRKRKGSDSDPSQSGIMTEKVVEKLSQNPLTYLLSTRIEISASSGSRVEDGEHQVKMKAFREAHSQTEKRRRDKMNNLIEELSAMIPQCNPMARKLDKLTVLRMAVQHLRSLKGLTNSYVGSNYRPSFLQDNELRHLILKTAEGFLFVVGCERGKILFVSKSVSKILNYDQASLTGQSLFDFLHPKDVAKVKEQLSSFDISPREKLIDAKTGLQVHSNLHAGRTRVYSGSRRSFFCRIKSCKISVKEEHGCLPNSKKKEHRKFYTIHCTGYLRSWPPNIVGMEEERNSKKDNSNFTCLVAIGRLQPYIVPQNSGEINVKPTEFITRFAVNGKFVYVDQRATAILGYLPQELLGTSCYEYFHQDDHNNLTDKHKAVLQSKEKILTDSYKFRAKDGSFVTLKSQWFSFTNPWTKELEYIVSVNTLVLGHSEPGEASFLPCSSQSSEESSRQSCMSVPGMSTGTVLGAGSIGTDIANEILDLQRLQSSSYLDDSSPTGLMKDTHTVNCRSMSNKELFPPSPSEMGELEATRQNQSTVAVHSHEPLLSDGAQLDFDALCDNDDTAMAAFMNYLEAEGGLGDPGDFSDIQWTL
Put plainly: SPR. As to conditions: BMAL2 immobilized; oligo analyte 50, 100, 200 nM; global 1:1 fit; OpenSPR (text also says BIAcore), 20 C, 30 ul/min; running buffer, salt and pH not stated (immobilization in 10 mM sodium acetate pH 5.5).

Take “GGCGCAACGCTGAGCAGCT (double strand) [human PD-L1 promoter predicted BMAL2 binding site oligo]”: the Kd stood at 209 nM.

A word on the Kd: it is the constant that tells how readily two partners part at equilibrium.
